US20220227882A1 (TRUSTEES OF TUFTS COLLEGE, published 2022)

T1: V459A (Homo sapiens, UniProt P78325)
T1 construct: expressed on HEK293 cells; also called human ADAM8 point mutant V459A
T1 sequence (ADAM8, looked up): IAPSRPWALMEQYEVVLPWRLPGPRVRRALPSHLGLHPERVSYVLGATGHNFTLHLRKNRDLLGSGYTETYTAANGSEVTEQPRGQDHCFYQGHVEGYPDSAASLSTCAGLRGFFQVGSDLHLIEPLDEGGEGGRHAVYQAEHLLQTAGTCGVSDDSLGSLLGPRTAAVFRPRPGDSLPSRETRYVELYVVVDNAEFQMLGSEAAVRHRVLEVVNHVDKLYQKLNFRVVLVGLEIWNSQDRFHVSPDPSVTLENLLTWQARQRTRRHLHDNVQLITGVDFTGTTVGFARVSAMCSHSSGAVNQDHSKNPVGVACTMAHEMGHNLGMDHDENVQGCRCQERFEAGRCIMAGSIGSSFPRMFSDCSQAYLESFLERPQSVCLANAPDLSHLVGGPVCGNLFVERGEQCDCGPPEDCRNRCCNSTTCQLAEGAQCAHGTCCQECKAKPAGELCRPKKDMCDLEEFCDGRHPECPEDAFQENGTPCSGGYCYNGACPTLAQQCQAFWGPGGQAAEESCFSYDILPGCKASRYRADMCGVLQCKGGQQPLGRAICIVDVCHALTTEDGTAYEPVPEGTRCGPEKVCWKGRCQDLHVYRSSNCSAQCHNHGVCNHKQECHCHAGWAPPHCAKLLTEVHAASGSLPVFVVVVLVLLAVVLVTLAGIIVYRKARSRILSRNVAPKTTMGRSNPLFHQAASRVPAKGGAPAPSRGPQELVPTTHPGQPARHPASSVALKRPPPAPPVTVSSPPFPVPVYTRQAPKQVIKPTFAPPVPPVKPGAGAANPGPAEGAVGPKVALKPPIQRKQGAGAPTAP

T2: R431A (Homo sapiens, UniProt P78325)
T2 construct: expressed on HEK293 cells; also called human ADAM8 point mutant R431A
T2 sequence (ADAM8, looked up): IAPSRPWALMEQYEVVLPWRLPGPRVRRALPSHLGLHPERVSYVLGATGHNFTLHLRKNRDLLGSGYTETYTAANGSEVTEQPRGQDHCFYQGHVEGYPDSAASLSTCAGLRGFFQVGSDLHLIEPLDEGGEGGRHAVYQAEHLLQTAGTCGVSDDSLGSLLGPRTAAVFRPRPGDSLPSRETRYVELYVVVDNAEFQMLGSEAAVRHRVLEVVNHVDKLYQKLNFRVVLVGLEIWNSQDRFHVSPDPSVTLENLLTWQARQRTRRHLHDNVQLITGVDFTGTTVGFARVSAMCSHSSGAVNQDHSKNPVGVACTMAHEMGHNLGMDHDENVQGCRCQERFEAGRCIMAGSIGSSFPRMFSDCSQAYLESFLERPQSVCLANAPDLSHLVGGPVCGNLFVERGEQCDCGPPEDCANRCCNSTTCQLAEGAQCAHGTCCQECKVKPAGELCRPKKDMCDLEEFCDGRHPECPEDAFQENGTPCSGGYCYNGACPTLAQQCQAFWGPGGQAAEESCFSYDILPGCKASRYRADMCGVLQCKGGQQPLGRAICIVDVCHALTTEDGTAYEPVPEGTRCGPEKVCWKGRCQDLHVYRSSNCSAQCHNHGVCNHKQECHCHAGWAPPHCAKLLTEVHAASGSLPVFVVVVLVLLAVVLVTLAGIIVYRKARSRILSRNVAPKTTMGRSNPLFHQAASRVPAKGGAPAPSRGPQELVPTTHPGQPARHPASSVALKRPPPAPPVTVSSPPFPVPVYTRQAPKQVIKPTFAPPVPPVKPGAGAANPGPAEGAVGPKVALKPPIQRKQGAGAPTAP


Columns and labels:
[1] = target: T1, V459A; assay: high-throughput flow cytometry, HEK293 cells with mutant ADAM8, high stringency; range in parentheses
Procedure: (§1) A variety of experimental parameters were optimized for high-throughput flow cytometry including blocking buffer, and primary and secondary antibody concentrations, to identify the optimal conditions for screening. Through these studies ADP2 and ADP13 were determined to be high affinity binding antibodies.
(§2) Thus, for these studies antigen-binding fragments (Fabs) of ADP2 and ADP13, which bind with lower affinity than the full antibody, were generated. In addition, higher binding stringency conditions were tested, such as increased pH, salinity, and temperature, and/or increased washing, to weaken binding sufficiently to allow identification of critical binding residues in flow cytometry. The final experimental flow cytometry conditions were: primary antibody incubation with ADP2 Fab (0.50 μg/ml), ADP13 Fab (5.00 μg/ml) and Control Ab (0.16 μg/ml) for 60 minutes in flow cytometry buffer containing 10% goat serum in PBS (Ca²⁺ and Mg²⁺ free). […] Samples were washed three times after primary antibody incubation and twice after secondary antibody incubation with PBS (Ca²⁺ and Mg′ free). Next, HEK293 cells expressing WT or mutated ADAM8 proteins or EV DNA were incubated with ADP2 or ADP13 Fabs or Control Ab at their optimal concentrations. Fab binding was detected using Alexa Fluor 488-conjugated secondary antibodies and mean cellular fluorescence determined using the Intellicyt iQue flow cytometry platform. […] This counter-screen strategy facilitates the exclusion of mutants that are locally misfolded or that have an expression defect. Binding of each test Fab to each mutant clone in the alanine scanning library was determined, in duplicate, by high-throughput flow cytometry.

[2] = target: T2, R431A; assay: as above
Procedure: as §1, §2

Binding Reactivity (% WT) [1] [% WT]	Binding Reactivity (% WT) [2] [% WT]	Binder
55.6		ADP2 Fab (Fab, V domains shown) VH: EVKLVESGGGLVQPGGSLSLSCAASGFSFPDYYMSWVRQPPGKALEWLGFIRDSANGYTTEYIASVKGRFTFSRDNSQSILYLQMNALRAEDSATYYCARYSRYYGMDYWGQGTSVTVSS VL: SIVMTQTPKILLVSAGDRVTITCKASQTVNYDVAWYQQKPGQSPKPVIYFASNRYTGVPDRFTGSGFGTDFTFTISTVQAEDLAVYFCQQDYSAPWTFGGGTKLEIK
	79.6	ADP13 Fab (Fab, V domains shown) VH: EVQLQQSGPEMVKPGTSVKISCKASGYTFTDYYINWVKQSHGKSLEWIGDISPNIGGATYNPKFKGKAILTVDKSARTAYMELRSLTSEDSAVYCCTRGGSSYPYFYAMDYWGQGTSVTVSS VL: DIVMSQSPSSLAVSVGEKVTMSCKSSQSLLYSSNQKKYLAWYQQKPGQSPKLLIYWASTRESGVPDRFTGSGSGTDFTLTISSVKAEDLAVYYCQQFYSYPYTFGGGTKLEINR
